Literature values as cited in publication PMC2854253.

Target: cTnI147-163 (Homo sapiens)
Test: NMR titration

Kd: 154 µM
Substance: cNTnC 1-89 (from UniProt P63316)
